Assay results published in patent publication US20260176319A1 (KALLYOPE, published 2026).
Starred links: 1 amine or outer side, 2 acyl side, 3 side chain; linkers in the order of their positions; H or OH if unused. Non-standard residues stand in square brackets, D forms with d. No end group written: not given here. *: point of attachment. Trp(7-Me) = Cc1cccc2c(C[C@H](N)C(=O)O)c[nH]c12; C20 diacid = O=C(O)CCCCCCCCCCCCCCCCCCC(=O)*; d(γGlu) = O=C(O)[C@@H](CCC(=O)[*:2])N[*:1]; C18 diacid = O=C(O)CCCCCCCCCCCCCCCCC(=O)*; γGlu = O=C(O)[C@H](CCC(=O)[*:2])N[*:1]; Palmitoyl = CCCCCCCCCCCCCCCC(=O)*; 3Pal = N[C@@H](Cc1cccnc1)C(=O)O; Nle = CCCC[C@H](N)C(=O)O; AEEA = NCCOCCOCC(=O)O; Aib = CC(C)(N)C(=O)O; βAla = NCCC(=O)O

B1: Peptide 159 (peptide)
peptide: {C18 diacid}-[γGlu][AEEA][AEEA]GNHWAV[dA][dH]L[Nle]-NH2
SMILES: CCCC[C@H](NC(=O)[C@H](CC(C)C)NC(=O)[C@@H](Cc1c[nH]cn1)NC(=O)[C@@H](C)NC(=O)[C@@H](NC(=O)[C@H](C)NC(=O)[C@H](Cc1c[nH]c2ccccc12)NC(=O)[C@H](Cc1c[nH]cn1)NC(=O)[C@H](CC(N)=O)NC(=O)CNC(=O)COCCOCCNC(=O)COCCOCCNC(=O)CC[C@H](NC(=O)CCCCCCCCCCCCCCCCC(=O)O)C(=O)O)C(C)C)C(N)=O
B2: Peptide 160 (peptide)
peptide: {C20 diacid}-[γGlu]GNHWAV[dA][dH]L[Nle]-NH2
SMILES: CCCC[C@H](NC(=O)[C@H](CC(C)C)NC(=O)[C@@H](Cc1c[nH]cn1)NC(=O)[C@@H](C)NC(=O)[C@@H](NC(=O)[C@H](C)NC(=O)[C@H](Cc1c[nH]c2ccccc12)NC(=O)[C@H](Cc1c[nH]cn1)NC(=O)[C@H](CC(N)=O)NC(=O)CNC(=O)CC[C@H](NC(=O)CCCCCCCCCCCCCCCCCCC(=O)O)C(=O)O)C(C)C)C(N)=O
B3: Peptide 13 (peptide)
peptide: Palmitoyl-[d(γGlu)][AEEA][AEEA]GNH[Trp(7-Me)]AV[dA]HL[Nle]-NH2
SMILES: CCCCCCCCCCCCCCCC(=O)N[C@H](CCC(=O)NCCOCCOCC(=O)NCCOCCOCC(=O)NCC(=O)N[C@@H](CC(N)=O)C(=O)N[C@@H](Cc1c[nH]cn1)C(=O)N[C@@H](Cc1c[nH]c2c(C)cccc12)C(=O)N[C@@H](C)C(=O)N[C@H](C(=O)N[C@H](C)C(=O)N[C@@H](Cc1c[nH]cn1)C(=O)N[C@@H](CC(C)C)C(=O)N[C@@H](CCCC)C(N)=O)C(C)C)C(=O)O
B4: Peptide 161 (peptide)
peptide: {C18 diacid}-[γGlu][AEEA][AEEA][dF]QHWAV[dA]HL[Nle]-NH2
SMILES: CCCC[C@H](NC(=O)[C@H](CC(C)C)NC(=O)[C@H](Cc1c[nH]cn1)NC(=O)[C@@H](C)NC(=O)[C@@H](NC(=O)[C@H](C)NC(=O)[C@H](Cc1c[nH]c2ccccc12)NC(=O)[C@H](Cc1c[nH]cn1)NC(=O)[C@H](CCC(N)=O)NC(=O)[C@@H](Cc1ccccc1)NC(=O)COCCOCCNC(=O)COCCOCCNC(=O)CC[C@H](NC(=O)CCCCCCCCCCCCCCCCC(=O)O)C(=O)O)C(C)C)C(N)=O
B5: Peptide 162 (peptide)
peptide: {C20 diacid}-[γGlu]GRHWAV[dA]HL[Nle]
B6: Peptide 163 (peptide)
peptide: {C20 diacid}-[γGlu]RRHWAV[dA]HL[Nle]
B7: Peptide 164 (peptide)
peptide: {C20 diacid}-[γGlu]GNHWAV[dA]HL[Nle]
B8: Peptide 165 (peptide)
peptide: {C20 diacid}-[γGlu]GQHWAV[dA]HL[Nle]-NH2
SMILES: CCCC[C@H](NC(=O)[C@H](CC(C)C)NC(=O)[C@H](Cc1c[nH]cn1)NC(=O)[C@@H](C)NC(=O)[C@@H](NC(=O)[C@H](C)NC(=O)[C@H](Cc1c[nH]c2ccccc12)NC(=O)[C@H](Cc1c[nH]cn1)NC(=O)[C@H](CCC(N)=O)NC(=O)CNC(=O)CC[C@H](NC(=O)CCCCCCCCCCCCCCCCCCC(=O)O)C(=O)O)C(C)C)C(N)=O
B9: Peptide 166 (peptide)
peptide: {C18 diacid}-[γGlu][AEEA][AEEA]GRHWAV[dA]HL[Nle]
B10: Peptide 167 (peptide)
peptide: {C20 diacid}-[γGlu][AEEA][AEEA]GRHWAV[dA]HL[Nle]
B11: Peptide 240 (peptide)
peptide: EEXXGNHWAVGHLX
modifications: Palmitoyl-γGlu-γGlu-OEG-OEG-Gly-Asn-His-Trp-Ala-Val-Gly-His-Leu-Nle-NH2
B12: Peptide 241 (peptide)
peptide: {C20 diacid}-[γGlu][AEEA][AEEA]GQHWAV[βAla]HL[Nle]-NH2
SMILES: CCCC[C@H](NC(=O)[C@H](CC(C)C)NC(=O)[C@H](Cc1c[nH]cn1)NC(=O)CCNC(=O)[C@@H](NC(=O)[C@H](C)NC(=O)[C@H](Cc1c[nH]c2ccccc12)NC(=O)[C@H](Cc1c[nH]cn1)NC(=O)[C@H](CCC(N)=O)NC(=O)CNC(=O)COCCOCCNC(=O)COCCOCCNC(=O)CC[C@H](NC(=O)CCCCCCCCCCCCCCCCCCC(=O)O)C(=O)O)C(C)C)C(N)=O
B13: Peptide 242 (peptide)
peptide: {C20 diacid}-[γGlu][AEEA][AEEA]GRH[Trp(7-Me)]AV[βAla]HL[Nle]-NH2
SMILES: CCCC[C@H](NC(=O)[C@H](CC(C)C)NC(=O)[C@H](Cc1c[nH]cn1)NC(=O)CCNC(=O)[C@@H](NC(=O)[C@H](C)NC(=O)[C@H](Cc1c[nH]c2c(C)cccc12)NC(=O)[C@H](Cc1c[nH]cn1)NC(=O)[C@H](CCCNC(=N)N)NC(=O)CNC(=O)COCCOCCNC(=O)COCCOCCNC(=O)CC[C@H](NC(=O)CCCCCCCCCCCCCCCCCCC(=O)O)C(=O)O)C(C)C)C(N)=O
B14: Peptide 14 (peptide)
peptide: Palmitoyl-[d(γGlu)][AEEA][AEEA]GNH[Trp(7-Me)][Aib]V[dA]HL[Nle]-NH2
SMILES: CCCCCCCCCCCCCCCC(=O)N[C@H](CCC(=O)NCCOCCOCC(=O)NCCOCCOCC(=O)NCC(=O)N[C@@H](CC(N)=O)C(=O)N[C@@H](Cc1c[nH]cn1)C(=O)N[C@@H](Cc1c[nH]c2c(C)cccc12)C(=O)NC(C)(C)C(=O)N[C@H](C(=O)N[C@H](C)C(=O)N[C@@H](Cc1c[nH]cn1)C(=O)N[C@@H](CC(C)C)C(=O)N[C@@H](CCCC)C(N)=O)C(C)C)C(=O)O
B15: Peptide 243 (peptide)
peptide: {C18 diacid}-[γGlu][γGlu][AEEA][AEEA]GRHWAV[βAla]HL[Nle]-NH2
SMILES: CCCC[C@H](NC(=O)[C@H](CC(C)C)NC(=O)[C@H](Cc1c[nH]cn1)NC(=O)CCNC(=O)[C@@H](NC(=O)[C@H](C)NC(=O)[C@H](Cc1c[nH]c2ccccc12)NC(=O)[C@H](Cc1c[nH]cn1)NC(=O)[C@H](CCCNC(=N)N)NC(=O)CNC(=O)COCCOCCNC(=O)COCCOCCNC(=O)CC[C@H](NC(=O)CC[C@H](NC(=O)CCCCCCCCCCCCCCCCC(=O)O)C(=O)O)C(=O)O)C(C)C)C(N)=O
B16: Peptide 244 (peptide)
peptide: {C20 diacid}-[γGlu][γGlu][AEEA][AEEA]GRHWAV[dA]HL[Nle]-NH2
SMILES: CCCC[C@H](NC(=O)[C@H](CC(C)C)NC(=O)[C@H](Cc1c[nH]cn1)NC(=O)[C@@H](C)NC(=O)[C@@H](NC(=O)[C@H](C)NC(=O)[C@H](Cc1c[nH]c2ccccc12)NC(=O)[C@H](Cc1c[nH]cn1)NC(=O)[C@H](CCCNC(=N)N)NC(=O)CNC(=O)COCCOCCNC(=O)COCCOCCNC(=O)CC[C@H](NC(=O)CC[C@H](NC(=O)CCCCCCCCCCCCCCCCCCC(=O)O)C(=O)O)C(=O)O)C(C)C)C(N)=O
B17: Peptide 245 (peptide)
peptide: {C20 diacid}-[γGlu][γGlu][AEEA][AEEA][dF]N[3Pal]WAV[βAla]HL[Nle]-NH2
SMILES: CCCC[C@H](NC(=O)[C@H](CC(C)C)NC(=O)[C@H](Cc1c[nH]cn1)NC(=O)CCNC(=O)[C@@H](NC(=O)[C@H](C)NC(=O)[C@H](Cc1c[nH]c2ccccc12)NC(=O)[C@H](Cc1cccnc1)NC(=O)[C@H](CC(N)=O)NC(=O)[C@@H](Cc1ccccc1)NC(=O)COCCOCCNC(=O)COCCOCCNC(=O)CC[C@H](NC(=O)CC[C@H](NC(=O)CCCCCCCCCCCCCCCCCCC(=O)O)C(=O)O)C(=O)O)C(C)C)C(N)=O
B18: Peptide 247 (peptide)
peptide: {C20 diacid}-[γGlu][γGlu][AEEA][AEEA]GEH[Trp(7-Me)]AV[BABA]HL[Nle]-NH2
B19: Peptide 248 (peptide)
peptide: {C20 diacid}-[γGlu][γGlu][AEEA][AEEA]E[dS]EH[Trp(7-Me)]AV[βAla]HL[Nle]-NH2
SMILES: CCCC[C@H](NC(=O)[C@H](CC(C)C)NC(=O)[C@H](Cc1c[nH]cn1)NC(=O)CCNC(=O)[C@@H](NC(=O)[C@H](C)NC(=O)[C@H](Cc1c[nH]c2c(C)cccc12)NC(=O)[C@H](Cc1c[nH]cn1)NC(=O)[C@H](CCC(=O)O)NC(=O)[C@@H](CO)NC(=O)[C@H](CCC(=O)O)NC(=O)COCCOCCNC(=O)COCCOCCNC(=O)CC[C@H](NC(=O)CC[C@H](NC(=O)CCCCCCCCCCCCCCCCCCC(=O)O)C(=O)O)C(=O)O)C(C)C)C(N)=O
B20: Peptide 251 (peptide)
peptide: {C20 diacid}-[γGlu][γGlu][AEEA][AEEA]GQHWAV[βAla]HL[Nle]-NH2
SMILES: CCCC[C@H](NC(=O)[C@H](CC(C)C)NC(=O)[C@H](Cc1c[nH]cn1)NC(=O)CCNC(=O)[C@@H](NC(=O)[C@H](C)NC(=O)[C@H](Cc1c[nH]c2ccccc12)NC(=O)[C@H](Cc1c[nH]cn1)NC(=O)[C@H](CCC(N)=O)NC(=O)CNC(=O)COCCOCCNC(=O)COCCOCCNC(=O)CC[C@H](NC(=O)CC[C@H](NC(=O)CCCCCCCCCCCCCCCCCCC(=O)O)C(=O)O)C(=O)O)C(C)C)C(N)=O
B21: Peptide 252 (peptide)
peptide: {C20 diacid}-[γGlu][γGlu][AEEA][AEEA]EGRH[Trp(7-Me)]AV[βAla]HL[Nle]-NH2
SMILES: CCCC[C@H](NC(=O)[C@H](CC(C)C)NC(=O)[C@H](Cc1c[nH]cn1)NC(=O)CCNC(=O)[C@@H](NC(=O)[C@H](C)NC(=O)[C@H](Cc1c[nH]c2c(C)cccc12)NC(=O)[C@H](Cc1c[nH]cn1)NC(=O)[C@H](CCCNC(=N)N)NC(=O)CNC(=O)[C@H](CCC(=O)O)NC(=O)COCCOCCNC(=O)COCCOCCNC(=O)CC[C@H](NC(=O)CC[C@H](NC(=O)CCCCCCCCCCCCCCCCCCC(=O)O)C(=O)O)C(=O)O)C(C)C)C(N)=O

Each binder was assayed against human GRP receptor (human, UniProt P30550 1-384) (assay: cell-based or functional assay).
human GRP receptor, sequence (P30550 whole entry): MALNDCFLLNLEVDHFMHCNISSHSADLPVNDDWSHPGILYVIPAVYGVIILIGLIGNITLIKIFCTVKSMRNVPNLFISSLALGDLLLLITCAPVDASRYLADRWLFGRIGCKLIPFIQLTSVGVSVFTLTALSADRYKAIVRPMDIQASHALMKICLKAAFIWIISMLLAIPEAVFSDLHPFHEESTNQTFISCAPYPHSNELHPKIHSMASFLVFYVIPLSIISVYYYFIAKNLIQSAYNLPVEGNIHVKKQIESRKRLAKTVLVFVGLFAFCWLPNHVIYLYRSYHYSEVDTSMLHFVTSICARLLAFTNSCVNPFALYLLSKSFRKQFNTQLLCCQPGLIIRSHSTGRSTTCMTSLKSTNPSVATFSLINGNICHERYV

Binder	hIP1 GRPR EC50 [nM]
B1	101
B2	31.5
B3	1.08
B4	21.4
B5	19.6
B6	88.5
B7	125
B8	1.55
B9	248
B10	114
B11	11.9
B12	2
B13	3.9
B14	10.8
B15	3.6
B16	2.8
B17	11.9
B18	1.8
B19	10.5
B20	4.4
B21	7.5
